Results from patent publication US20110318846, “Aptamer and detection method for C-reactive protein” (National Cheng-Kung University, published 2011).

T1: C-reactive protein (CRP) (Homo sapiens, UniProt P02741 P02741:19-224)
T1 sequence: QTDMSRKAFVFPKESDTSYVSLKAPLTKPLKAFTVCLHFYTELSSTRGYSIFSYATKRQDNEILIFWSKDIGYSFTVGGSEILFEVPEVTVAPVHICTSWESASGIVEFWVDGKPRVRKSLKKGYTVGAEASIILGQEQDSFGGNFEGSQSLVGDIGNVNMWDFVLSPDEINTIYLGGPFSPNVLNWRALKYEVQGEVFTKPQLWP

B1: aptamer B (ssDNA)
DNA: GGCAGGAAGACAAACACACAAGCGGGTGGGTGTGTACTATTGCAGTATCTATTCTGTGGTCTGTGGTGCTGT
B2: aptamer A (ssDNA)
DNA: GGCAGGAAGACAAACACGATGGGGGGGTATGATTTGATGTGGTTGTTGCATGATCGTGGTCTGTGGTGCTGT
modifications: 5'-biotin (SPR and bead assay)

Tests used:
C-reactive protein (CRP) [1] = target: T1, C-reactive protein (CRP); assay: competition; PCR product 3; CRP-coated tube, competition with free CRP, PCR readout, 25 C; conditions: immobilised on Dynabeads M-450 Epoxy for SELEX, in solution for SPR; chain copies: 5 inferred (pentamer)
C-reactive protein (CRP) [2] = target: T1, C-reactive protein (CRP); assay: SPR; Biacore X, SA chip with biotinylated aptamer, 10 mM Tris, 50 mM NaCl, 2 mM CaCl2, 25 C, 1:1 Langmuir; conditions: immobilised on Dynabeads M-450 Epoxy for SELEX, in solution for SPR; chain copies: 5 inferred (pentamer)
Protocol: Then, 90 μL of the aptamer solution A being cooled to 4° C. is aliquoted, and the aptamer solution A is injected to pass the surface of the SA sensor chip, so that the aptamers A in the aptamer solution A is coated on the surface of the SA sensor chip. Later, 90 μL of the reverse primer solution is injected and passes through the surface of the SA sensor chip for blocking. Subsequently, 5×SSCT buffer is used to wash the surface of the SA sensor chip until the SPR response reaches a balance.
Five cycles as described in the following are then performed. Here, each cycle includes: (1) injecting 90 μL of the testing solution to pass through the surface of the SA sensor chip; (2) washing the surface of the SA sensor chip by using 90 μL of a washing buffer C (10 mM Tris buffer containing 50 mM NaCl and 2 mM CaCl₂); (3) recording the SPR response of the SA sensor chip for 5 min; and (4) injecting 90 μL of 100 mM NaOH to pass the surface of the SA sensor chip, so that the surface of the SA sensor chip is regenerated. The testing solutions used in the five cycles are washing buffers C respectively having a CRP concentration of 0.01, 0.05, 0.1, and 0.5 mg/L.
FIG. 4 is a SPR response measured under different CRP concentrations detected by the SA sensor chip coated with aptamers A along with time in the Biacore X system. […]

| Binder | binding result (C-reactive protein (CRP) [1]) | Kd (C-reactive protein (CRP) [2]) |
| --- | --- | --- |
| B1 | binds |  |
| B2 |  | 3.51 nM |
